Experimental data: patent EP4792830A2
Where two headings read alike, the source gives them in different places.

What was measured:
[1] = molecular target: endogenous TFPI in human plasma (human), P10646; assay: cell-based or functional assay
[2] = molecular target: endogenous TFPI in human plasma (human), P10646; assay: cell-based or functional assay; remark: listed apart in the source

Row | EC50 (dilute prothrombin time, clotting time) [1] [nM] | TGA Velocity Index at 20 nM [1] | Dilute PT EC50 [1] [nM] | TGA Velocity EC50 [1] [nM] | TGA Velocity Index at 20 nM [2] | Binder
1 | 0.57 | 23.2 |  |  |  | TFPI-24 (antibody, human IgG1, lambda) heavy: EVQLVESGGGSVQPGRSLRLSCAVSGLTIDNYAMQWVRQRPGKGLEWVSGISGNSRSIGYADSVKGRLTISRDNAKNSLYLQIDSLRADDTALYYCAIFLHESDYWGQGTLVTVSSASTKGPSVFPLAPSSKSTSGGTAALGCLVKDYFPEPVTVSWNSGALTSGVHTFPAVLQSSGLYSLSSVVTVPSSSLGTQTYICNVNHKPSNTKVDKKVEPKSCDKTHTCPPCPAPEAAGAPSVFLFPPKPKDTLMISRTPEVTCVVVDVSHEDPEVKFNWYVDGVEVHNAKTKPREEQYNSTYRVVSVLTVLHQDWLNGKEYKCKVSNKALPAPIEKTISKAKGQPREPQVYTLPPSREEMTKNQVSLTCLVKGFYPSDIAVEWESNGQPENNYKTTPPVLDSDGSFFLYSKLTVDKSRWQQGNVFSCSVMHEALHNHYTQKSLSLSPG light: not shown
2 | 1.16 |  | 1.16 | 7.72 |  | TFPI-118 (antibody, human IgG1, lambda) heavy: EVQLVESGGGLVQPGRSLRLSCAVSGLTIDNYAMQWVRQAPGKGLEWVSGISGNSRSIGYADSVKGRFTISRDNAKNSLYLQMNSLRAEDTALYYCAIFLHESDYWGQGTLVTVSSASTKGPSVFPLAPSSKSTSGGTAALGCLVKDYFPEPVTVSWNSGALTSGVHTFPAVLQSSGLYSLSSVVTVPSSSLGTQTYICNVNHKPSNTKVDKKVEPKSCDKTHTCPPCPAPEAAGAPSVFLFPPKPKDTLMISRTPEVTCVVVDVSHEDPEVKFNWYVDGVEVHNAKTKPREEQYNSTYRVVSVLTVLHQDWLNGKEYKCKVSNKALPAPIEKTISKAKGQPREPQVYTLPPSREEMTKNQVSLTCLVKGFYPSDIAVEWESNGQPENNYKTTPPVLDSDGSFFLYSKLTVDKSRWQQGNVFSCSVMHEALHNHYTQKSLSLSPG light: not shown
3 |  |  | 1 |  |  | 2A8-200 (antibody, human IgG1, lambda) heavy: QVQLVESGGGLVQPGGSLRLSCAASGFTFRSYGMDWVRQAPGKGLEWVSSIRGSRSSTYYADSVKGRFTISRDNSKNTLYLQMNSLRAEDTAVYYCARLYRYWFDYWGQGTLVTVSSASTKGPSVFPLAPSSKSTSGGTAALGCLVKDYFPEPVTVSWNSGALTSGVHTFPAVLQSSGLYSLSSVVTVPSSSLGTQTYICNVNHKPSNTKVDKKVEPKSCDKTHTCPPCPAPEAAGAPSVFLFPPKPKDTLMISRTPEVTCVVVDVSHEDPEVKFNWYVDGVEVHNAKTKPREEQYNSTYRVVSVLTVLHQDWLNGKEYKCKVSNKALPAPIEKTISKAKGQPREPQVYTLPPSREEMTKNQVSLTCLVKGFYPSDIAVEWESNGQPENNYKTTPPVLDSDGSFFLYSKLTVDKSRWQQGNVFSCSVMHEALHNHYTQKSLSLSPG light: DIELTQPPSVSVAPGQTARISCSGDNLRNYYAHWYQQKPGQAPVVVIFYDVNRPSGIPERFSGSNSGNTATLTISGTQAEDEADYYCQSWWDGVPVFGGGTKLTVLGQPKAAPSVTLFPPSSEELQANKATLVCLISDFYPGAVTVAWKADSSPVKAGVETTTPSKQSNNKYAASSYLSLTPEQWKSHRSYSCQVTHEGSTVEKTVAPTECS
4 |  | 13.5 |  |  | 26.3 | 4D8.b1 (antibody, mouse IgG1, kappa) heavy: EVLLQQSGPELVKPGASVKIPCKASGYTFTDYNLDWVKQSHGKSLEWIGDINPINGATLYNQKFKGKATLTVDQSSSTAYMELRSLTSEDTAVYYCSIYYGDYDAMDYWGQGASVTVSSAKTTPPSVYPLAPGSAAQTNSMVTLGCLVKGYFPEPVTVTWNSGSLSSGVHTFPAVLQSDLYTLSSSVTVPSSTWPSETVTCNVAHPASSTKVDKKIVPRDCGCKPCICTVPEVSSVFIFPPKPKDVLTITLTPKVTCVVVDISKDDPEVQFSWFVDDVEVHTAQTQPREEQFNSTFRSVSELPIMHQDWLNGKEFKCRVNSAAFPAPIEKTISKTKGRPKAPQVYTIPPPKEQMAKDKVSLTCMITDFFPEDITVEWQWNGQPAENYKNTQPIMDTDGSYFVYSKLNVQKSNWEAGNTFTCSVLHEGLHNHHTEKSLSHSPGK light: DIVMTQSHKFMSTSVGDRVSITCKASQDVHTAVAWYQQKPGQSPRLLIYWASTRHTGVPDRFTGCGSGTDYTLTISSVQAEDLALYYCQQHYTTPYTFGGGTKLEMKADAAPTVSIFPPSSEQLTSGGASVVCFLNNFYPKDINVKWKIDGSERQNGVLNSWTDQDSKDSTYSMSSTLTLTKDEYERHNSYTCEATHKTSTSPIVKSFNRNEC
5 | 0.47 | 15.7 | 0.47 | 3.9 |  | hz4D8 (antibody, human IgG1, kappa) heavy: EVQLVESGGGLVQPGGSLRLSCAASGYTFTDYNLDWVRQAPGKGLEWVADINPINGATLYNQKFKGRFTISRDQAKNSLYLQMNSLRAEDTAVYYCARYYGDYDAMDYWGQGTLVTVSSASTKGPSVFPLAPSSKSTSGGTAALGCLVKDYFPEPVTVSWNSGALTSGVHTFPAVLQSSGLYSLSSVVTVPSSSLGTQTYICNVNHKPSNTKVDKKVEPKSCDKTHTCPPCPAPEAAGAPSVFLFPPKPKDTLMISRTPEVTCVVVDVSHEDPEVKFNWYVDGVEVHNAKTKPREEQYNSTYRVVSVLTVLHQDWLNGKEYKCKVSNKALPAPIEKTISKAKGQPREPQVYTLPPSREEMTKNQVSLTCLVKGFYPSDIAVEWESNGQPENNYKTTPPVLDSDGSFFLYSKLTVDKSRWQQGNVFSCSVMHEALHNHYTQKSLSLSPG light: DIQMTQSPSSLSASVGDRVTITCKASQDVHTAVAWYQQKPGKAPKLLIYWASTRHTGVPSRFSGSGSGTDYTLTISSLQPEDFATYYCQQHYTTPYTFGQGTKLEIKRTVAAPSVFIFPPSDEQLKSGTASVVCLLNNFYPREAKVQWKVDNALQSGNSQESVTEQDSKDSTYSLSSTLTLSKADYEKHKVYACEVTHQGLSSPVTKSFNRGEC
